For experiment [1], the target named is Matrix Metalloproteinase-9 (MMP-9), wild type (Homo sapiens (Human), UniProt P14780 20-707). Nature of the experiment: cell-based or functional assay.
In experiment [2] the target is T1, MMP-9 with a carboxy-terminal Myc tag (MMP-9/Myc) (Homo sapiens (Human), UniProt P14780 20-707).
T1 construct: Expressed from cDNA in COS-1 cells and secreted as proMMP-9; also called Myc-tagged MMP-9; proMMP-9/Myc; not shown: C-terminal Myc tag from the pcDNA3.1-myc vector
The experiment in a line: co-immunoprecipitation, co-transfected COS-1 cells. The source says: FIG. 4. Blade IV of the PEX domain of proMMP-9 is required for homodimerization and cell migration. (A) Ribbon diagram of MMP-9 PEX domain (PDB:1ITV). Each outermost β-strand from the four blades was swapped with the corresponding MMP-2 PEX domain sequences (upper panel). Lower panel: Schematic diagram of substitution mutations at the outermost 3-strands of four blade of MMP-9 by corresponding MMP-2 sequences. […] The conditioned medium was also examined by gelatin zymography (lower panel). […] (P-values reflect comparison with MMP-9 transfected cells: *P<0.05). (D) A peptide mimicking MMP-9 IVS4 abrogates MMP-9 dimerization examined by co-immunoprecipitation (upper panel). Total cell lysate (20 μg) was also examined by an immunoblotting assay using anti-HA antibody (lower panel). (E) Dose dependent inhibition of MMP-9-mediated cell migration by IVS4 peptides. No effect was found using scrambled peptides. COS-1 cells transfected with an empty vector or MMP-9 cDNAs were examined by a transwell chamber migration assay for 6 hours in the presence of DMSO control, specific and scramble peptides at different concentration. Each data point was performed in triplicate and the experiments was repeated three times (*P<0.05).
Each blade contains four anti-parallel […]-strands with peptide loops linking one strand to the next as illustrated in FIG. 1B. […]

Consider NQVDQVGY [IVS4 peptide (NQVDQVGY)], for which, in experiment [1], the “IC50 (potency; inhibition of MMP-9-induced cell migration, transwell assay)” value came to 50 µM.

B1: MMP-9/IVS4 chimera (MMP-9 with the outermost β-strand of blade IV of the PEX domain, NQVDQVGY, replaced by MMP-2 KSVKFGS) (enzyme)
chain: APRQRQSTLVLFPGDLRTNLTDRQLAEEYLYRYGYTRVAEMRGESKSLGPALLLLQKQLSLPETGELDSATLKAMRTPRCGVPDLGRFQTFEGDLKWHHHNITYWIQNYSEDLPRAVIDDAFARAFALWSAVTPLTFTRVYSRDADIVIQFGVAEHGDGYPFDGKDGLLAHAFPPGPGIQGDAHFDDDELWSLGKGVVVPTRFGNADGAACHFPFIFEGRSYSACTTDGRSDGLPWCSTTANYDTDDRFGFCPSERLYTQDGNADGKPCQFPFIFQGQSYSACTTDGRSDGYRWCATTANYDRDKLFGFCPTRADSTVMGGNSAGELCVFPFTFLGKEYSTCTSEGRGDGRLWCATTSNFDSDKKWGFCPDQGYSLFLVAAHEFGHALGLDHSSVPEALMYPMYRFTEGPPLHKDDVNGIRHLYGPRPEPEPRPPTTTTPQPTAPPTVCPTGPPTVHPSERPTAGPTGPPSAGPTGPPTAGPSTATTVPLSPVDDACNVNIFDAIAEIGNQLYLFKDGKYWRFSEGRGSRPQGPFLIADKWPALPRKLDSVFEERLSKKLFFFSGRQVWVYTGASVLGPRRLDKLGLGADVAQVTGALRSGRGKMLLFSGRRLWRFDVKAQMVDPRSASEVDRMFPGVPLDTHDVFQYREKAYFCQDRFYWRVSSRSELKSVKFGSVTYDILQCPED
notes: also called MMP-9/Blade IV; MMP-9/blade IV mutant
For B1, in experiment [2], the binding result is “no binding”.
For SRPQGPFL [IS4 peptide (SRPQGPFL)], in experiment [1], the “IC50 (potency; inhibition of MMP-9-induced cell migration, transwell assay)” value was 12 µM.
